These results are taken from patent US20210238260A1 (published 2021).

Where a chain is given by its changes, count along the chain named. In names and notes the source's numbering stands.

The labels stand for the following.
T1: Factor VIIIa (recombinant FVIII, Kogenate FS, activated with alpha-thrombin) (UniProt P00451 20-2351)
T1 construct: also called FVIIIa
T1 sequence (looked up): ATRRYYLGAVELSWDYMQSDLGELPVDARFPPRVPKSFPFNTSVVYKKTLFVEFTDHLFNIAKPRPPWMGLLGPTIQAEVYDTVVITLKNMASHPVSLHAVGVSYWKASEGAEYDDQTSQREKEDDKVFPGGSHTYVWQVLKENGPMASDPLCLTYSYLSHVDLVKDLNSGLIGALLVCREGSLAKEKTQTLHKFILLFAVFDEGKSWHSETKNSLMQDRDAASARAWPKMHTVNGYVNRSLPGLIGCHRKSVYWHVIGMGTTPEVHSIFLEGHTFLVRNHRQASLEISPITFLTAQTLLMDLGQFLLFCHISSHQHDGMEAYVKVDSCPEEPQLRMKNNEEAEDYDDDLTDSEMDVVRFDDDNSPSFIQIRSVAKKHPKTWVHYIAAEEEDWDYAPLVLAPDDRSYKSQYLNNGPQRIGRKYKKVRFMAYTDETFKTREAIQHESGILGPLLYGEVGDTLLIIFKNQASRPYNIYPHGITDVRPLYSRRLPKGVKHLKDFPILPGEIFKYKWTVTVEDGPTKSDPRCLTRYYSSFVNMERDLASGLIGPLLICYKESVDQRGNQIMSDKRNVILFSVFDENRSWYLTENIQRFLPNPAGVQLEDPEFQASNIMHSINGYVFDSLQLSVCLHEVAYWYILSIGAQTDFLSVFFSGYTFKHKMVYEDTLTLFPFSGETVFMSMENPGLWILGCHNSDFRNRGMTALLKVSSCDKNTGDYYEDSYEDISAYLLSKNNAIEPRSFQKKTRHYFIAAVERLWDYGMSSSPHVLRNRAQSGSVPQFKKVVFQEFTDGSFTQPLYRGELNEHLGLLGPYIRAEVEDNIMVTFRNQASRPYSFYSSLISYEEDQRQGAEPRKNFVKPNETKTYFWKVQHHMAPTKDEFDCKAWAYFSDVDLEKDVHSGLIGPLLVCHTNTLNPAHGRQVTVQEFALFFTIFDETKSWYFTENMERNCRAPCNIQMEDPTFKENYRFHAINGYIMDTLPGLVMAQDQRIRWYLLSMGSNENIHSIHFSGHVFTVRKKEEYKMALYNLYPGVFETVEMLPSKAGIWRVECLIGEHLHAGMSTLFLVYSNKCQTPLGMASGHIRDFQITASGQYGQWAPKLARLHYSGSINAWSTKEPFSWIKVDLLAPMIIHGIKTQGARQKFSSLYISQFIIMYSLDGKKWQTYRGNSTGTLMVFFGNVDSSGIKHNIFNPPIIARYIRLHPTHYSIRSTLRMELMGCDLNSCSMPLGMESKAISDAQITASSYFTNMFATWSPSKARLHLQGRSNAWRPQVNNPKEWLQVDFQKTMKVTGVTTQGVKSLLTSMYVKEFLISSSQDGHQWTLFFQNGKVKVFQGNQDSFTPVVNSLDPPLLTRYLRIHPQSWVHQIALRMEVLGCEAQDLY

T2: Factor VIIIa (FVIIIa), from recombinant FVIII (Kogenate FS; Bayer healthcare) activated with alpha-thrombin (UniProt P00451 20-2351)
T2 sequence (looked up): T1 sequence (looked up)

B1: FIXa-K247N/N249S/R338E/T343R/E410N (enzyme)
chain 1: YNSGKLEEFVQGNLERECMEEKCSFEEAREVFENTERTTEFWKQYVDGDQCESNPCLNGGSCKDDINSYECWCPFGFEGKNCELDVTCNIKNGRCEQFCKNSADNKVVCSCTEGYRLAENQKSCEPAVPFPCGRVSVSQTSKLTR
chain 2: VVGGEDAKPGQFPWQVVLNGKVDAFCGGSIVNEKWIVTAAHCVETGVKITVVAGEHNIEETEHTEQNRSVIRIIPHHNYNAAINKYNHDIALLELDEPLVLNSYVTPICIADKEYTNIFLKFGSGYVSGWGRVFHKGRSALVLQYLRVPLVDRATCLESTKFRIYNNMFCAGFHEGGRDSCQGDSGGPHVTEVEGTSFLTGIISWGEECAMKGKYGIYTKVSRYVNWIKNKTKLT
notes: also called K82N/N84S/R170E/T175R/E240N (chymotrypsin numbering)
B2: FIXa-K228N/K247N/N249S/R318Y/R338E/T343R/E410N (enzyme)
chain 1: B1 chain 1
chain 2: B1 chain 2 with K48N, R138Y
notes: also called K63N/K82N/N84S/R150Y/R170E/T175R/E240N (chymotrypsin numbering)
B3: FIXa-K228N/R318Y/R338E/T343R/R403E/E410N (enzyme)
chain 1: B1 chain 1
chain 2: B1 chain 2 with K48N, N67K, S69N, R138Y, R223E
notes: also called K63N/R150Y/R170E/T175R/R233E/E240N (chymotrypsin numbering)
B4: FIXa-R318Y/R338E/T343R/R403E/E410S (enzyme)
chain 1: B1 chain 1
chain 2: B1 chain 2 with N67K, S69N, R138Y, R223E, N230S
notes: also called R150Y/R170E/T175R/R233E/E240S (chymotrypsin numbering)
B5: FIXa-D203N/F205T/R338E/R403E (enzyme)
chain 1: B1 chain 1
chain 2: B1 chain 2 with D23N, F25T, N67K, S69N, R163T, R223E, N230E
notes: also called D39N/F41T/R170E/R233E (chymotrypsin numbering)
B6: FIXa-D203N/F205T/R338E (enzyme)
chain 1: B1 chain 1
chain 2: B1 chain 2 with D23N, F25T, N67K, S69N, R163T, N230E
notes: also called D39N/F41T/R170E (chymotrypsin numbering)
B7: FIXa-K228N/R318Y/E410N (enzyme)
chain 1: B1 chain 1
chain 2: B1 chain 2 with K48N, N67K, S69N, R138Y, E158R, R163T
notes: also called K63N/R150Y/E240N (chymotrypsin numbering)
B8: FIXa-D104N/K106S/R318Y/R338E/E410N (enzyme)
chain 1: B1 chain 1 with D104N, K106S
chain 2: B1 chain 2 with N67K, S69N, R138Y, R163T
notes: also called D104N/K106S/R318Y/E410N/R338E
B9: FIXa-R338E/R403E/E410N (enzyme)
chain 1: B1 chain 1
chain 2: B1 chain 2 with N67K, S69N, R163T, R223E
notes: also called R170E/R233E/E240N (chymotrypsin numbering)
B10: FIXa-D203N/F205T/R318Y (enzyme)
chain 1: B1 chain 1
chain 2: B1 chain 2 with D23N, F25T, N67K, S69N, R138Y, E158R, R163T, N230E
notes: also called D39N/F41T/R150Y (chymotrypsin numbering)
B11: FIXa-D203N/F205T/E410N (enzyme)
chain 1: B1 chain 1
chain 2: B1 chain 2 with D23N, F25T, N67K, S69N, E158R, R163T
notes: also called D39N/F41T/E240N (chymotrypsin numbering)
B12: FIXa-D203N/F205T/R338A (enzyme)
chain 1: B1 chain 1
chain 2: B1 chain 2 with D23N, F25T, N67K, S69N, E158A, R163T, N230E
notes: also called D39N/F41T/R170A (chymotrypsin numbering)
B13: FIXa-R318Y/R403E/E410N (enzyme)
chain 1: B1 chain 1
chain 2: B1 chain 2 with N67K, S69N, R138Y, E158R, R163T, R223E
notes: also called R150Y/R233E/E240N (chymotrypsin numbering)
B14: FIXa-K228N/R338E/R403E (enzyme)
chain 1: B1 chain 1
chain 2: B1 chain 2 with K48N, N67K, S69N, R163T, R223E, N230E
notes: also called K63N/R170E/R233E (chymotrypsin numbering)
B15: FIXa-D203N/F205T/K228N (enzyme)
chain 1: B1 chain 1
chain 2: B1 chain 2 with D23N, F25T, K48N, N67K, S69N, E158R, R163T, N230E
notes: also called D39N/F41T/K63N (chymotrypsin numbering)
B16: FIXa-R318Y/R338E/E410S (enzyme)
chain 1: B1 chain 1
chain 2: B1 chain 2 with N67K, S69N, R138Y, R163T, N230S
notes: also called R150Y/R170E/E240S
B17: FIXa-Y155F/K247N/N249S/R318Y/R338E/E410N (enzyme)
chain 1: B1 chain 1
chain 2: B1 chain 2 with R138Y, R163T
B18: FIXa-D104N/K106S/I251S/R318Y/R338E/E410N (enzyme)
chain 1: B1 chain 1 with D104N, K106S
chain 2: B1 chain 2 with N67K, S69N, I71S, R138Y, R163T
B19: FIXa-D104N/K106S/Y155F/K228N/K247N/N249S (enzyme)
chain 1: B1 chain 1 with D104N, K106S
chain 2: B1 chain 2 with K48N, E158R, R163T, N230E
B20: FIXa-I251S/R318Y/R338E/E410N (enzyme)
chain 1: B1 chain 1
chain 2: B1 chain 2 with N67K, S69N, I71S, R138Y, R163T
notes: also called I86S/R150Y/R170E/E240N; I251S/R318Y/E410N/R338E
B21: FIXa-D104N/K106S/K228N/K247N/N249S (enzyme)
chain 1: B1 chain 1 with D104N, K106S
chain 2: B1 chain 2 with K48N, E158R, R163T, N230E
B22: FIXa-K247N/N249S/R318Y/R338E/E410N (enzyme)
chain 1: B1 chain 1
chain 2: B1 chain 2 with R138Y, R163T
notes: also called K82N/N84S/R150Y/R170E/E240N
B23: FIXa-K247N/N249S/R318Y/R338E/R403E/E410N (enzyme)
chain 1: B1 chain 1
chain 2: B1 chain 2 with R138Y, R163T, R223E
notes: also called K82N/N84S/R150Y/R170E/R233E/E240N
B24: FIXa-Y259F/K265T/Y345T (enzyme)
chain 1: B1 chain 1
chain 2: B1 chain 2 with N67K, S69N, Y79F, K85T, E158R, R163T, Y165T, N230E
notes: also called Y94F/K98T/Y177T
B25: FIXa-A103N/N105S/K247N/N249S/R318Y/R338E/R403E/E410N (enzyme)
chain 1: B1 chain 1 with A103N, N105S
chain 2: B1 chain 2 with R138Y, R163T, R223E
B26: FIXa-R318Y/R338E/T412A (enzyme)
chain 1: B1 chain 1
chain 2: B1 chain 2 with N67K, S69N, R138Y, R163T, N230E, T232A
notes: also called R150Y/R170E/T242A
B27: FIXa-Y155F/N260S/R318Y/R338E/R403E/E410N (enzyme)
chain 1: B1 chain 1
chain 2: B1 chain 2 with N67K, S69N, N80S, R138Y, R163T, R223E
B28: FIXa-R318Y/R338E/E410N/T412V (enzyme)
chain 1: B1 chain 1
chain 2: B1 chain 2 with N67K, S69N, R138Y, R163T, T232V
notes: also called R150Y/R170E/E240N/T242V
B29: FIXa variant Y259F/K265T/Y345T (enzyme)
light: B1 chain 1
heavy: B1 chain 2 with N67K, S69N, Y79F, K85T, E158R, R163T, Y165T, N230E
notes: also called Y94F/K98T/Y177T

The first test addresses T1, Factor VIIIa (recombinant FVIII, …). The test can be described thus: functional cofactor affinity KD-app: fluorogenic FX activation (Xase) assay, FVIIIa titrated, PC/PS vesicles, saturating FX.
Experimental: Reactions were monitored in a SpectraMax fluorescence plate reader for 30 min at 37° C. A standard curve of free AMC served as the conversion factor for RFU to μM in the subsequent data analysis calculations using a dose range that covered 0 μM to 100 μM AMC.
Regarding B1, the Kd came out at 14 nM.

Take B2: the Kd stood at 7.8 nM.

For the molecule B3, the Kd amounted to 17.5 nM.

Take B4: the Kd was found to be 23.2 nM.

The target of another test is T3, antithrombin III (plasma purified human AT-III), used as the AT-III/unfractionated heparin complex (human, UniProt P01008 33-464).
T3 construct: also called AT-III/UFH
The test can be described thus: K0.5: AT-III/UFH titrated against FIXa, 10 s, residual cleavage of Mesyl-D-CHG-Gly-Arg-AMC.
With B5, the IC50 was determined as 1520 nM.

Molecule B6 displayed an IC50 of 1170 nM.

As for B7, the IC50 amounted to 475 nM.

B8 came in with an IC50 of 6330 nM.

The molecule B9 came in with an IC50 of 2350 nM.

B10 came in with an IC50 of 7230 nM.

With B11, half-maximal inhibition (IC50) was put at 377 nM.

The molecule B12 came in with an IC50 of 423 nM.

B13: the IC50 was determined as 7070 nM. Against the preceding molecule, the IC50 is about 17-fold higher.

B14 showed an IC50 of 1680 nM.

B15 came in with an IC50 of 822 nM.

The target of another test is T4, plasma purified human AT-III (antithrombin III) (human, UniProt P01008 33-464).
T4 construct: also called AT-III/UFH (in complex with unfractionated heparin)
The test can be described thus: K0.5: AT-III/UFH titrated on FIXa, residual activity on fluorogenic substrate.
Take B16: half-maximal inhibition (IC50) required 5400 nM.

As to B17, the IC50 turned out to be 3880 nM.

With B18, 8980 nM corresponded to half-maximal inhibition (IC50).

Turning to B19, the IC50 is 32 nM.

B20 came in with an IC50 of 5860 nM.

Regarding B21, the midpoint of inhibition, the IC50, lay at 41 nM.

Take B22: the IC50 amounted to 1510 nM.

The molecule B23 gave an IC50 of 8080 nM.

B24 came in with an IC50 of 6 nM.

The molecule B25 registered an IC50 of 2500 nM.

The molecule B26 had an IC50 of 7660 nM.

In the case of B27, the IC50 stood at 9700 nM.

As to B28, it took 4870 nM to reach half-maximal inhibition (IC50).

In the next test the target is T2, Factor VIIIa (FVIIIa), from recombinant …. In words: apparent functional KD (KD-app): FX activation rate vs FVIIIa titration, fluorogenic Xase assay with PC/PS vesicles and Ca2+.
Text: (§1) The activity of alpha-thrombin was then quenched by the addition of a highly specific thrombin inhibitor, hirudin, prior to initiating the assay.
For B29, the Kd amounted to 115 nM.

The target is the same in another test. In words: ratio of KD-app of Catalyst Biosciences WT FIXa to KD-app of the variant, same Xase assay.
Text: as §1
As for B29, the KD-WT/KD-mut came to 0.8 fold.

For the next test, the target named is T1, Factor VIIIa (recombinant FVIII, …). In words: ratio of KD-app of wild-type FIXa (Catalyst Biosciences WT, SEQ ID NO:3) to that of the variant, same Xase assay.
Text: as §1
B1: the KD-WT/KD-mut is 6.8.

As for B2, the KD-WT/KD-mut worked out at 12.2.

For B3, the KD-WT/KD-mut is 5.4.

On to B4, for which the KD-WT/KD-mut stood at 4.1.

Usually IC50 stands for the concentration that inhibits the measured activity by half. A higher IC50 goes with a need for much substance.
